Test results taken from article doi:10.1101/553800 (bioRxiv, 2019).

Target: the molecule itself
Assay: crystal structure

B1: hRIO2(1-321) (domain or fragment, human, UniProt Q9BVS4 1-321, looked up)
chain: MGKVNVAKLRYMSRDDFRVLTAVEMGMKNHEIVPGSLIASIASLKHGGCNKVLRELVKHKLIAWERTKTVQGYRLTNAGYDYLALKTLSSRQVVESVGNQMGVGKESDIYIVANEEGQQFALKLHRLGRTSFRNLKNKRDYHKHRHNVSWLYLSRLSAMKEFAYMKALYERKFPVPKPIDYNRHAVVMELINGYPLCQIHHVEDPASVYDEAMELIVKLANHGLIHGDFNEFNLILDESDHITMIDFPQMVSTSHPNAEWYFDRDVKCIKDFFMKRFSYESELFPTFKDIRREDTLDVEVSASGYTKEMQADDELLHPLGP
binding result: binds
